Experiment in all cases: far-Western, overlay or dot blot; purified GST-fused peptides resolved by SDS-PAGE, transferred to PVDF membranes and probed with biotin-labeled ALG-2; chemiluminescence, quantified with ImageJ
Test [1] deals with GST-8 aa-fusion of SET1B.
For test [2], the target named is GST-8 aa-fusion of CHERP.
In test [3] the target is GST-8 aa-fusion of RBM22.
Test [4] has as its target substitution of Pro with Ala at position 2, 4 or 5 (P2A, P4A or P5A) or substitution of Pro5 with Leu (P5L).

The values below come from PMC4346919.

biotin-labeled ALG-2, sequence (O75340 whole entry): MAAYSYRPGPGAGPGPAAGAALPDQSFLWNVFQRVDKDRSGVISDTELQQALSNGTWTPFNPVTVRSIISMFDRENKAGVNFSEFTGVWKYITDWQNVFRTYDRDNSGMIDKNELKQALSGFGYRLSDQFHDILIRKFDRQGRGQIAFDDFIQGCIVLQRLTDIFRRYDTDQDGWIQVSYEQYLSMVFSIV

For “biotin-labeled ALG-2 (from UniProt O75340 1-191) (natural protein)”, the FW signal relative to that for Sec31A (of the signal for Sec31A) in test [1], in test [2] and in test [3] was below 0.0625 throughout. Further, the relative binding activity (percent of WT) in test [4] is 40 to 75 % of WT.
